14 sequences from the supplement of paper PMC9170038 can be followed below.

This data set has as its system MS2 coat protein. The data set can be described thus: apparent KD of MS2 coat protein; higher = weaker reporter binding. The settings on record: Eterna round: R107. On the procedure: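 RNA-MaP round R107: designed RNA switches with theophylline, tryptophan, arginine or FMN aptamers are transcribed on-chip within common flanks. They are titrated with SNAP-549-labelled MS2 coat protein in RNA-MaP buffer (100 mM Tris pH 7.5, 80 mM KCl, 4 mM MgCl2), without ligand or with the indicated ligand. Median apparent KD per design.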

Where [1] appears, read: input ligand: theophylline 20 uM.
[2] abbreviates: input ligand: theophylline 2 mM.
Where [3] appears, read: input ligand: tryptophan 2.4 mM.

For the sequence “AAAACACAUGAGGAUCACCCAUGUCAUGAUACCAGUCAACAUGAGGACCCUUGGCAGCAUAAAAUGGGUAACAUGAGGAUCACCC [AstrosEXyTheA#1]”, the “apparent KD of MS2 coat protein” value runs as follows: (input ligand: arginine 13.2 mM) 129 nM; (input ligand: none) 29.4 nM; under setting [1], 93.8 nM; under setting [2], 102 nM; under setting [3], 50.5 nM.
For “AAAACACAUGAGGAUCACCCAUGUCGUGAUACCAGUCAACAUGAGGACCCUUGGCAGCAUAAAAUGGGUAACAUGAGGAUCACCC [AstrosEXyTheA#5]”, the “apparent KD of MS2 coat protein” value by setting is: (input ligand: arginine 13.2 mM) 65.3 nM; under setting [1], 118 nM; under setting [3], 90.9 nM.
“AAAACAUGAGGAUCACCACAUGACAUGAGGCGAGGACCGGUACGGCCGCCACUCGACAUACAUGAGGAUCACCCAUGUUUGUUGU [Exclusion Tryptophan A 4]”: the “apparent KD of MS2 coat protein” value amounted to 40.7 nM (input ligand: arginine 13.2 mM), 274 nM under setting [1] and 460 nM under setting [2].
On to “AAAACAUGAGGAUCACCCAUGUGGUGAGAAGGAGCGUCGGAAAUGACAGGUAGGUCGCUUAUCCGUAAGUAUUAGUGUUAGUACA [SSArg A #1]”, for which the “apparent KD of MS2 coat protein” value by setting is: (input ligand: arginine 13.2 mM) 140 nM; (input ligand: none) 280 nM; under setting [1], 290 nM; under setting [2], 388 nM; under setting [3], 335 nM.
For the sequence “AAAAGAGGUGGAAGGAGCGGGAGACAUGAGGAUCACCCAUGUGAUAUGACAAGAGGAUCAGCCCAGGUAGGUCGCCAUGUCGAAA [pbbbmullin]”, the “apparent KD of MS2 coat protein” value amounted to 17.9 nM (input ligand: arginine 13.2 mM); 71.1 nM (input ligand: none); 53.1 nM under setting [1]; 103 nM under setting [2]; 50 nM under setting [3].
In the case of “AAAAUCCUACUUGAGGAUCACCCAGGUGAAGGAGCGCCCGAAAGGGCAGGUAGGUCGCACCUGAGGAUCACCCUGGUAAACCUAA [ArgEX 8 #DoubleMS2 #OpenEnded]”, the “apparent KD of MS2 coat protein” value was determined as 79.1 nM (input ligand: arginine 13.2 mM); 140 nM (input ligand: none); 135 nM under setting [1]; 185 nM under setting [2]; 152 nM under setting [3].
Turning to “AAACAUUGCUCAGAUACCAGACAUGAGGAUCACCCAUGUACCAAGGUAAAGAAAUAACGUGUCCCUUGGCAGCUGAGCAAUGAAA [MAT - Exclusion Theophlline B - Mod of Eli - D10]”, the “apparent KD of MS2 coat protein” value came out at 11.5 nM (input ligand: arginine 13.2 mM), 12.8 nM under setting [1] and 10.9 nM under setting [3].
Turning to “AAAUAAAUACAUGAGGAUCACCCAUGUGAAGGAGCGCCCGUUAGGGCAGGUAGGUCGCGCAUGAAUAACUCCGUGCAAAAGCACA [ArgEX 19 #OpenEnded]”, the “apparent KD of MS2 coat protein” value was 57.8 nM (input ligand: arginine 13.2 mM); 15.6 nM (input ligand: none); 37.3 nM under setting [1]; 26.4 nM under setting [2]; 19.6 nM under setting [3].
For the sequence “AACAGGGCUUCCACGAAGCCCUAAGGUGAUACCAGCACAUGUAAGUGCCCUUGGCAGCACGGUACAUGAGGAUCACCCAUGUAGA [Gerara]”, the “apparent KD of MS2 coat protein” value is, setting by setting: (input ligand: arginine 13.2 mM) 19.9 nM; under setting [1], 237 nM; under setting [3], 24.3 nM.
As for “AACAGGGUCUGAAGGAGCGCGAUCACAUGAGGAUCACCCAUGUGAAAUGGUAGAUGAUACUCGCAGGUAGGUCGCAGUACUUGAC [Same State Arginine B GF 15]”, the “apparent KD of MS2 coat protein” value by setting is: (input ligand: arginine 13.2 mM) 54.2 nM; (input ligand: none) 33.6 nM; under setting [1], 127 nM; under setting [2], 82.4 nM; under setting [3], 28.4 nM.
Regarding “AACAUACAGUUUUAGGUGGAUAUAAGGCGGCGAGGACCGGUACGGCCGCCACUCGCGUACAUGAGGAUCACCCAUGUCUGAAGCU [Same State - Tryptophan A (Freestyle 7)]”, the “apparent KD of MS2 coat protein” value came out at 24.4 nM (input ligand: arginine 13.2 mM), 59.2 nM under setting [1] and 86.9 nM under setting [2].
“AACAUGAGGAUCACCCAUGUCCCAUGUGAACGAGGACCGGUACGGCCGCCACUCGACCGAGGCGGCACAUGAGGAUCACCCACAU [whbob_SS_trypto A_2s13]”: the “apparent KD of MS2 coat protein” value is, setting by setting: (input ligand: arginine 13.2 mM) 137 nM; under setting [1], 278 nM; under setting [2], 370 nM.
For the sequence “AACAUGAGGAUCACCCAUGUCGGGCCGGAGCGAGGACCGGUACGGCCGCCACUCGAGACAUGAGGAUCACCCAUGUAGGGCGAAA [Exclusion Tryptophan A GF21]”, the “apparent KD of MS2 coat protein” value runs as follows: (input ligand: arginine 13.2 mM) 61.5 nM; (input ligand: none) 116 nM; under setting [1], 141 nM; under setting [2], 189 nM; under setting [3], 186 nM.
As to “AACAUGAGGAUCACCCAUGUCGGGCCGGUGCGAGGACCGGUACGGCCGCCACUCGAGACAUGAGGAUCACCCAUGUAGGGCGAGA [Exclusion Tryptophan A GF22]”, the “apparent KD of MS2 coat protein” value stood at 44 nM (input ligand: arginine 13.2 mM); 79.7 nM (input ligand: none); 70.7 nM under setting [1]; 80.7 nM under setting [2]; 115 nM under setting [3].
